Laboratory results taken from patent US20160108128A1 (CANCER RESEARCH TECHNOLOGY, published 2016).

Assays:
[1] = target: T1, human Jagged 2, full length, on HEK293 cells (human, UniProt Q9Y219 24-1238); assay: FACS, 293-JAG2 cells, anti-human-APC
T1 construct: whole, on cells; also called J2; hJ2
Experimental: FIG. 18. […] Samples were analysed by FACS and the mean fluorescence intensities (MFI) were plotted. […] With the exception of J1-65D variants 13-16, all the remaining antibodies effectively bound the human J1 protein.
(§1) HEK293 cells transfected with human J1, J2 or FLAG-EGFP-tagged DSL-EGF3 constructs, B16F10 cells transfected with human DLL4 or mouse J1, and human cancer cell lines, were stained with either purified anti-J1 antibodies at 10 μg/ml diluted in FACS wash buffer (2% FBS in PBS+0.1% sodium azide) or neat hybridoma supernatants followed by a allophycocyanin (APC)-conjugated secondary antibody at 1:200 dilution: for murine primary antibodies, used goat anti-mouse-APC (eBioscience); for humanised and chimeric antibodies used goat anti-human IgG (H+L) secondary antibody (Jackson ImmunoResearch Laboratories). After washing, samples were fixed with 1% paraformaldehyde (in PBS) and acquired with a FACSCalibur. FACS data were analysed with FlowJo software (TreeStar Inc.).

[2] = target: T2, murine Jagged 1, full length, on B16F10 cells (mouse, UniProt Q9QXX0 34-1218); assay: FACS, B16F10-mJAG1 cells, anti-human-APC
T2 construct: whole, on cells; GFP co-expressed; also called mJ1; B16F10-mJAG1
T2 sequence (Q9QXX0 34-1218, one chain of several): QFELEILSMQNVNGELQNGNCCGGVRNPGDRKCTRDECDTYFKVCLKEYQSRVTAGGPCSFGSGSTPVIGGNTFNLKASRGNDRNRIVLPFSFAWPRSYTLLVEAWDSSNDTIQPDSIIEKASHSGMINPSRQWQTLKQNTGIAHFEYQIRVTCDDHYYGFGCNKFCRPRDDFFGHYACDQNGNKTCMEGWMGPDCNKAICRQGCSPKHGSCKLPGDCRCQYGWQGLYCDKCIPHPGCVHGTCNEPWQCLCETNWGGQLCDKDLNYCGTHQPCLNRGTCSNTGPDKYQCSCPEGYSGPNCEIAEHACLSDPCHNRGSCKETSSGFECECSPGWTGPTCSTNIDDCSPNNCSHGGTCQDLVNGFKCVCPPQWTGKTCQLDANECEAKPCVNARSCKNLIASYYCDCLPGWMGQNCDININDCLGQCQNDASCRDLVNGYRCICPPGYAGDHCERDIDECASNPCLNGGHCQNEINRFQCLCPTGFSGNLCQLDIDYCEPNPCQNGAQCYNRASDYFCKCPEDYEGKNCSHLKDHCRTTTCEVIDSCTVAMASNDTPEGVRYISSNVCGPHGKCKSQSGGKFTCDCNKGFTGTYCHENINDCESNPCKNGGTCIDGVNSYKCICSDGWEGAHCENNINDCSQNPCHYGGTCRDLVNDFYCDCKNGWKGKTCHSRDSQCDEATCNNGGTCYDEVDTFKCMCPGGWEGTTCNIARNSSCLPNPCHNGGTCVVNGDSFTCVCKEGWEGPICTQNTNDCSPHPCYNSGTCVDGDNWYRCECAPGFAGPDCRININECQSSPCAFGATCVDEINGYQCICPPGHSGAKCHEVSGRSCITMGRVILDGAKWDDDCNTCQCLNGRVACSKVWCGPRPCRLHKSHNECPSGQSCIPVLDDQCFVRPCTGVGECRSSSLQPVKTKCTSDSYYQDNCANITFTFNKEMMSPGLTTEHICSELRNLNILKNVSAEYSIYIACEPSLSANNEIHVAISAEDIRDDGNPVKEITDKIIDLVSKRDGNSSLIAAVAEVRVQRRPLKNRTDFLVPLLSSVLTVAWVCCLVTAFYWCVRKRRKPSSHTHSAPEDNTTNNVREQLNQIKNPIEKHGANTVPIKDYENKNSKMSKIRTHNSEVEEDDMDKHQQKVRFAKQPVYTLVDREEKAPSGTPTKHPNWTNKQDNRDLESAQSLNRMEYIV
Experimental: FIG. 19. […] Samples were analysed by FACS and the mean fluorescence intensities (MFI) were plotted.
as §1

[3] = target: T3, J1 DSL-EGF3 soluble recombinant protein (human Jagged 1 amino acids 185-335) (human, UniProt P78504 185-335); assay: affinity to the immunogen J1-DE3; method not stated
T3 construct: biotinylated in the CD46 ELISA; also called J1-DE3; DSL+EGF1-3
T3 sequence (P78504 185-335, form in doubt): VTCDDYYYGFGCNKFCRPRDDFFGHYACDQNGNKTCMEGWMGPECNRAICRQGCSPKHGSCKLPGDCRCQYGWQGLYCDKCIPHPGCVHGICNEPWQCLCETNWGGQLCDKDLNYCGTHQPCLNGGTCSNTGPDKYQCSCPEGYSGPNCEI

T1 sequence (Q9Y219 24-1238): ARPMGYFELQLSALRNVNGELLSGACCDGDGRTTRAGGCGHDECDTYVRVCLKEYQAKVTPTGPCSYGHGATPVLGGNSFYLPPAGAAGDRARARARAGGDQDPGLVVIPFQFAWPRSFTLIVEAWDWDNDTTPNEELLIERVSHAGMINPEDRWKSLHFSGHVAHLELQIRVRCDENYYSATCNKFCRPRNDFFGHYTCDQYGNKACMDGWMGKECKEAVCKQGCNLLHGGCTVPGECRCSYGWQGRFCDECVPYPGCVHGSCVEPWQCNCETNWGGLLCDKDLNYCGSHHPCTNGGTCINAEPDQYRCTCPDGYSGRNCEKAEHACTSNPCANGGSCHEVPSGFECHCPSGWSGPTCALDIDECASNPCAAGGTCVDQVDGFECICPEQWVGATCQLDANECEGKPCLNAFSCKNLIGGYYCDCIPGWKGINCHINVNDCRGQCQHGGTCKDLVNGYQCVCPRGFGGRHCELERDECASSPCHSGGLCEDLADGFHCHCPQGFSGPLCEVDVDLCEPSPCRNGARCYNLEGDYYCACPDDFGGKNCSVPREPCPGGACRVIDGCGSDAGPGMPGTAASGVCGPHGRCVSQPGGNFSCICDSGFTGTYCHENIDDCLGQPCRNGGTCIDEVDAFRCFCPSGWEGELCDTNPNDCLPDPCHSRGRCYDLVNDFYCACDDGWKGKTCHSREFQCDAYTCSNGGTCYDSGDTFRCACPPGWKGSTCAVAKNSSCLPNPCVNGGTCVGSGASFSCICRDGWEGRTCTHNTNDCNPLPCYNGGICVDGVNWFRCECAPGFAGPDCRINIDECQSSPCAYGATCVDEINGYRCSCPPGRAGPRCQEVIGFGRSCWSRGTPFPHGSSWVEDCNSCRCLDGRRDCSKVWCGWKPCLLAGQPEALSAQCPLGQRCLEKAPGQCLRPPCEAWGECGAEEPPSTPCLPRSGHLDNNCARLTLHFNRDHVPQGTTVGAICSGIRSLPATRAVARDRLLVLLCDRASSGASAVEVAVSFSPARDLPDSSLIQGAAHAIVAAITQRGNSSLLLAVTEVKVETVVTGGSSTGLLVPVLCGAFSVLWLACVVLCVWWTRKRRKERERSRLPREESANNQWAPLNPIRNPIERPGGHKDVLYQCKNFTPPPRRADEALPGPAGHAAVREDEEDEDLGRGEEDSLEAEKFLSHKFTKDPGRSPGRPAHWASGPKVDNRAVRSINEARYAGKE

| Binder | binding result [1] | binding result [2] | Kd [3] [nM] |
| --- | --- | --- | --- |
| J1-183D variant 11 (antibody, human IgG1, V domains shown, human IgG1; also called J1-183DV11; V11) VH: QVQLVQSGAELKKPGASVKVSCKVSGYAFTDYAIHWVRQAPGQGLEWMGIINTYYGDSKYAQKFQGRVTMTVDTSTSTAYMELSSLRSEDTAVYYCARGYDGFAYWGQGTLVTVSS VL: DIQMTQSPSSLSASVGDRVTITCRTSENIYSYLTWYQQKPGKAPKLLIYNAKILDSGVPSRFSGSGSGTDFTLTISSLQPEDFATYYCQHHYDIPWTFGGGTKLEIKR | no binding (tested: 10 ug/ml) | no binding (tested: 10 ug/ml) | 2.82 |
| J1-183D variant 13 (antibody, human IgG1, V domains shown, human IgG1; also called J1-183DV13; V13) VH: QVQLVQSGAELKKPGASVKVSCKVSGYAFTDYAIHWIRQAPGQGLEWMGIINTYYGDSKYNQKFKDRVTMTVDKSTSTAYMELSSLRSEDTAVYYCARGYDGFAYWGQGTLVTVSS VL: DIQMTQSPSSLSASVGDRVTITCRTSENIYSYLTWYQQKPGKAPKLLIYHAKILDSGVPSRFSGSGSGTDFTLTISSLQPEDFATYYCQHHYDIPWTFGGGTKLEIKR | no binding (tested: 10 ug/ml) | no binding (tested: 10 ug/ml) | 1.5 |
| J1-183D variant 15 (antibody, human IgG1, V domains shown, human IgG1; also called J1-183DV15; V15) VH: QVQLVQSGAELKKPGASVKVSCKVSGYAFTDYAIHWVRQAPGQGLEWMGIINTYYGDSKYAQKFQGRVTMTVDTSTSTAYMELSSLRSEDTAVYYCARGYDGFAYWGQGTLVTVSS VL: DIQMTQSPSSLSASVGDRVTITCRTSENIYSYLTWYQQKPGKAPKLLIYHAKILDSGVPSRFSGSGSGTDFTLTISSLQPEDFATYYCQHHYDIPWTFGGGTKLEIKR | no binding (tested: 10 ug/ml) | no binding (tested: 10 ug/ml) | 5.47 |
| J1-183D variant 12 (antibody, human IgG1, V domains shown, human IgG1; also called J1-183DV12; V12) VH: QVQLVQSGAEVKKPGASVKVSCKASGYTFTDYAIHWVRQAPGQGLEWMGIINTYYGDSKYAQKFQGRVTMTVDTSTSTAYMELSSLRSEDTAVYYCARGYDGFAYWGQGTLVTVSS VL: DIQMTQSPSSLSASVGDRVTITCRTSENIYSYLTWYQQKPGKAPKLLIYNAKILDSGVPSRFSGSGSGTDFTLTISSLQPEDFATYYCQHHYDIPWTFGGGTKLEIKR | no binding (tested: 10 ug/ml) | no binding (tested: 10 ug/ml) | 2.61 |
| J1-183D variant 16 (antibody, human IgG1, V domains shown, human IgG1; also called J1-183DV16; V16) VH: QVQLVQSGAEVKKPGASVKVSCKASGYTFTDYAIHWVRQAPGQGLEWMGIINTYYGDSKYAQKFQGRVTMTVDTSTSTAYMELSSLRSEDTAVYYCARGYDGFAYWGQGTLVTVSS VL: DIQMTQSPSSLSASVGDRVTITCRTSENIYSYLTWYQQKPGKAPKLLIYHAKILDSGVPSRFSGSGSGTDFTLTISSLQPEDFATYYCQHHYDIPWTFGGGTKLEIKR | no binding (tested: 10 ug/ml) | no binding (tested: 10 ug/ml) | 4.86 |
| J1-183D variant 14 (antibody, human IgG1, V domains shown, human IgG1; also called J1-183DV14; V14) VH: QVQLVQSGAELKKPGASVKVSCKVSGYAFTDYAIHWIRQAPGQGLEWMGIINTYYGDSKYAQKFQGRVTMTVDTSTSTAYMELSSLRSEDTAVYYCARGYDGFAYWGQGTLVTVSS VL: DIQMTQSPSSLSASVGDRVTITCRTSENIYSYLTWYQQKPGKAPKLLIYHAKILDSGVPSRFSGSGSGTDFTLTISSLQPEDFATYYCQHHYDIPWTFGGGTKLEIKR | no binding (tested: 10 ug/ml) | no binding (tested: 10 ug/ml) | 3.91 |
| J1-65D variant 6 (antibody, human IgG1, V domains shown, human IgG1; also called J1-65DV6; V6) VH: QVQLVQSGAELKKPGSSVKVSCKASGYTFTDYEMHWVRQAPGQGLEWMGAIQPGGGGTAYAQKFKGRVTLTADKSTSTAYMELSSLRSEDTAVYYCTRRGYDDYPFAYWGQGTLVTVSS VL: DIQMTQSPSSLSASVGDRVTITCRASGNIHNYLAWYQQKPGKAPKLLIYNAKTLADAVPSRFSGSGSGTDYTLTISSLQPEDFATYYCQHFWSAPWTFGGGTKLEIKR | no binding (tested: 10 ug/ml) | no binding (tested: 10 ug/ml) | 0.223 |
| J1-65D variant 3 (antibody, human IgG1, V domains shown, human IgG1; also called J1-65DV3; V3) VH: QVQLVQSGAEVKKPGSSVKVSCKASGYTFTDYEMHWVRQAPGQGLEWMGAIQPGGGGTAYAQKFQGRVTLTADKSTSTAYMELSSLRSEDTAVYYCTRRGYDDYPFAYWGQGTLVTVSS VL: DIQMTQSPSSLSASVGDRVTITCRASGNIHNYLAWYQQKPGKAPKLLIYNAKTLADDVPSRFSGSGSGTDYTLTISSLQPEDFATYYCQHFWSAPWTFGGGTKLEIKR | no binding (tested: 10 ug/ml) | no binding (tested: 10 ug/ml) | 0.158 |
| J1-65D variant 7 (antibody, human IgG1, V domains shown, human IgG1; also called J1-65DV7; V7) VH: QVQLVQSGAEVKKPGSSVKVSCKASGYTFTDYEMHWVRQAPGQGLEWMGAIQPGGGGTAYAQKFQGRVTLTADKSTSTAYMELSSLRSEDTAVYYCTRRGYDDYPFAYWGQGTLVTVSS VL: DIQMTQSPSSLSASVGDRVTITCRASGNIHNYLAWYQQKPGKAPKLLIYNAKTLADAVPSRFSGSGSGTDYTLTISSLQPEDFATYYCQHFWSAPWTFGGGTKLEIKR | no binding (tested: 10 ug/ml) | no binding (tested: 10 ug/ml) | 0.151 |
| J1-65D variant 9 (antibody, human IgG1, V domains shown, human IgG1; also called J1-65DV9; V9) VH: QVQLVQSGAELKKPGSSVKVSCKASGYTFTDYEMHWVRQAPGQGLEWMGAIQPGGGGTAYNQKFKGRVTLTADKSTSTAYMELSSLRSEDTAVYYCTRRGYDDYPFAYWGQGTLVTVSS VL: DIQMTQSPSSLSASVGDRVTITCRASGNIHNYLAWYQQKPGKAPKLLIYNAKTLADAVPSRFSGSGSGTDYTLTISSLQPEDFATYYCQHFWSAPWTFGQGTKLEIKR | no binding (tested: 10 ug/ml) | no binding (tested: 10 ug/ml) | 0.0139 |
| J1-65D variant 2 (antibody, human IgG1, V domains shown, human IgG1; also called J1-65DV2; V2) VH: QVQLVQSGAELKKPGSSVKVSCKASGYTFTDYEMHWVRQAPGQGLEWMGAIQPGGGGTAYAQKFKGRVTLTADKSTSTAYMELSSLRSEDTAVYYCTRRGYDDYPFAYWGQGTLVTVSS VL: DIQMTQSPSSLSASVGDRVTITCRASGNIHNYLAWYQQKPGKAPKLLIYNAKTLADDVPSRFSGSGSGTDYTLTISSLQPEDFATYYCQHFWSAPWTFGGGTKLEIKR | no binding (tested: 10 ug/ml) | no binding (tested: 10 ug/ml) | 0.165 |
| J1-65D variant 1 (antibody, human IgG1, V domains shown, human IgG1; also called J1-65DV1; V1) VH: QVQLVQSGAELKKPGSSVKVSCKASGYTFTDYEMHWVRQAPGQGLEWMGAIQPGGGGTAYNQKFKGRVTLTADKSTSTAYMELSSLRSEDTAVYYCTRRGYDDYPFAYWGQGTLVTVSS VL: DIQMTQSPSSLSASVGDRVTITCRASGNIHNYLAWYQQKPGKAPKLLIYNAKTLADDVPSRFSGSGSGTDYTLTISSLQPEDFATYYCQHFWSAPWTFGGGTKLEIKR | no binding (tested: 10 ug/ml) | no binding (tested: 10 ug/ml) | 0.15 |
| J1-65D variant 8 (antibody, human IgG1, V domains shown, human IgG1; also called J1-65DV8; V8) VH: QVQLVQSGAEVKKPGSSVKVSCKASGYTFTDYEMHWVRQAPGQGLEWMGAIQPGGGGTAYAQKFQGRVTITADKSTSTAYMELSSLRSEDTAVYYCTRRGYDDYPFAYWGQGTLVTVSS VL: DIQMTQSPSSLSASVGDRVTITCRASGNIHNYLAWYQQKPGKAPKLLIYNAKTLADAVPSRFSGSGSGTDYTLTISSLQPEDFATYYCQHFWSAPWTFGGGTKLEIKR | no binding (tested: 10 ug/ml) | no binding (tested: 10 ug/ml) | 0.0717 |
| J1-65D variant 10 (antibody, human IgG1, V domains shown, human IgG1; also called J1-65DV10; V10) VH: QVQLVQSGAELKKPGSSVKVSCKASGYTFTDYEMHWVRQAPGQGLEWMGAIQPGGGGTAYAQKFKGRVTLTADKSTSTAYMELSSLRSEDTAVYYCTRRGYDDYPFAYWGQGTLVTVSS VL: DIQMTQSPSSLSASVGDRVTITCRASGNIHNYLAWYQQKPGKAPKLLIYNAKTLADAVPSRFSGSGSGTDYTLTISSLQPEDFATYYCQHFWSAPWTFGQGTKLEIKR | no binding (tested: 10 ug/ml) | no binding (tested: 10 ug/ml) | 0.293 |
| J1-65D variant 5 (antibody, human IgG1, V domains shown, human IgG1; also called J1-65DV5; V5) VH: QVQLVQSGAELKKPGSSVKVSCKASGYTFTDYEMHWVRQAPGQGLEWMGAIQPGGGGTAYNQKFKGRVTLTADKSTSTAYMELSSLRSEDTAVYYCTRRGYDDYPFAYWGQGTLVTVSS VL: DIQMTQSPSSLSASVGDRVTITCRASGNIHNYLAWYQQKPGKAPKLLIYNAKTLADAVPSRFSGSGSGTDYTLTISSLQPEDFATYYCQHFWSAPWTFGGGTKLEIKR | no binding (tested: 10 ug/ml) | no binding (tested: 10 ug/ml) | 0.0446 |
| J1-65D variant 4 (antibody, human IgG1, V domains shown, human IgG1; also called J1-65DV4; V4) VH: QVQLVQSGAEVKKPGSSVKVSCKASGYTFTDYEMHWVRQAPGQGLEWMGAIQPGGGGTAYAQKFQGRVTITADKSTSTAYMELSSLRSEDTAVYYCTRRGYDDYPFAYWGQGTLVTVSS VL: DIQMTQSPSSLSASVGDRVTITCRASGNIHNYLAWYQQKPGKAPKLLIYNAKTLADDVPSRFSGSGSGTDYTLTISSLQPEDFATYYCQHFWSAPWTFGGGTKLEIKR | no binding (tested: 10 ug/ml) | no binding (tested: 10 ug/ml) | 0.0949 |
